Measured values taken from the supplement of paper PMC10065799, “High-throughput profiling of sequence recognition by tyrosine kinases and SH2 domains using bacterial peptide display” (eLife, 2023).

Assays:
EPHB1 = EPHB1 (UniProt P54762); test: phosphorylation enrichment, bacterial display (enrichment ratio); higher = better substrate or ligand; peptides without Tyr show the background
Jak2 = Jak2 (UniProt O60674); test: as above
Fes = Fes (UniProt P07332); test: as above
FGFR3 = FGFR3 (UniProt P22607); test: as above
Chain of FGFR3 (P22607 whole entry, looked up): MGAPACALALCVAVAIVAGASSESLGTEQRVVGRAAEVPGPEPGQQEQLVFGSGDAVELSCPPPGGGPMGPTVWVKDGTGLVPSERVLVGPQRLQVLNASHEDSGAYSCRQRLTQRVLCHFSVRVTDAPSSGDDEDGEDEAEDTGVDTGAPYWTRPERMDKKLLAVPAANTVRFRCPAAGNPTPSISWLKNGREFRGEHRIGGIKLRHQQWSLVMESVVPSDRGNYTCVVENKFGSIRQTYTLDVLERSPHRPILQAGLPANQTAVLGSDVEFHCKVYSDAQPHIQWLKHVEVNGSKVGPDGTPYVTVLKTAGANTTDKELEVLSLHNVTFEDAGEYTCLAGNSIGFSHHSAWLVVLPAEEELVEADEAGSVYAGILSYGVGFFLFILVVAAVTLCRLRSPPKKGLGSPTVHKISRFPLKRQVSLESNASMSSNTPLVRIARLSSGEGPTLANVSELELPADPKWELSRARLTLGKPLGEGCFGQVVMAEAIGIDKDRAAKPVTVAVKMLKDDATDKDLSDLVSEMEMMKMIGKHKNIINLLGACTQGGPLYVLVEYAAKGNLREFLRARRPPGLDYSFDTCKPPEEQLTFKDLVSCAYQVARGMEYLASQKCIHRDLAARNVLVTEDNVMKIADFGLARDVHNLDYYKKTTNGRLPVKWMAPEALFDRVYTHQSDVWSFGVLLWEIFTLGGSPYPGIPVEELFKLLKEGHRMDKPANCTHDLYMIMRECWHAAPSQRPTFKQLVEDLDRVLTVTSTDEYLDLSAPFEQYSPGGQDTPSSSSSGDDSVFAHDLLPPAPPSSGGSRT

EPHB2 = EPHB2 (UniProt P29323); test: as above
Fer (mouse) = test: as above
FGFR1 = FGFR1 (UniProt P11362); test: as above
c-Abl (mouse) = test: as above
Fyn = Fyn (UniProt P06241); test: as above
Chain of Fyn (P06241 whole entry, looked up): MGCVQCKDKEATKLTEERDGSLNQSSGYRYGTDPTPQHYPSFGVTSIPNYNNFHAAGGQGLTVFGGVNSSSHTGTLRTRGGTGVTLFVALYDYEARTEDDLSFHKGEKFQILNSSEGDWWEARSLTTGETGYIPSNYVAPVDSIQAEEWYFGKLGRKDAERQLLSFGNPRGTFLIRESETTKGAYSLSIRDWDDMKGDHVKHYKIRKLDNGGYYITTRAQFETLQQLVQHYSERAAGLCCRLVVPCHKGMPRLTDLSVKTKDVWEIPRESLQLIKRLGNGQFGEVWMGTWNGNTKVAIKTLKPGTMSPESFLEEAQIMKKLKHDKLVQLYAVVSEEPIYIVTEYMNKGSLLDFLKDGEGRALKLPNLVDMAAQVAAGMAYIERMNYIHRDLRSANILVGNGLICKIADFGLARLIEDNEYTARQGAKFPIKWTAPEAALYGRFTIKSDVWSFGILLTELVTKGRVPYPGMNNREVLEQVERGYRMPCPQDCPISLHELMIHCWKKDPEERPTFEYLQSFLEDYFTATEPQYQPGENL

c-Src = test: as above
AncSZ = test: as above
MERTK = MERTK (UniProt Q12866); test: as above
Hck = Hck (UniProt P08631); test: as above
Chain of Hck (P08631 whole entry, looked up): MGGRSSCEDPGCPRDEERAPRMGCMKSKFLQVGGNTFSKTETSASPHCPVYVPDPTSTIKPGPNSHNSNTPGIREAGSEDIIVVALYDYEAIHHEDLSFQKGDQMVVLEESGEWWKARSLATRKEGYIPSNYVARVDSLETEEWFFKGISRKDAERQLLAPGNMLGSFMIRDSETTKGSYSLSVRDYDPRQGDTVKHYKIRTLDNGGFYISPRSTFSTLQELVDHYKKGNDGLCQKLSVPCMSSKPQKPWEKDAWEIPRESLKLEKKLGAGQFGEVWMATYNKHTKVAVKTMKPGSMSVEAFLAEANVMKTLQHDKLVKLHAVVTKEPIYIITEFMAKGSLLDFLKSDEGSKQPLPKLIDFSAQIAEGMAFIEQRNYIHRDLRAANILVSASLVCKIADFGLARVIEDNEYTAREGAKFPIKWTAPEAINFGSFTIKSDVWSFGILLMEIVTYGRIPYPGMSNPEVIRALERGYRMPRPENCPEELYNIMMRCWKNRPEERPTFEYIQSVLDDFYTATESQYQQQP

c-Src SH2 = test: SH2 binding enrichment of the phosphorylated peptide, bacterial display (enrichment ratio); higher = better substrate or ligand; peptides without Tyr show the background
SHP2-C SH2 = test: as above
Grb2 SH2 = Grb2 SH2 (UniProt P62993); test: as above
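Throughout, for SH2 binding enrichment of the phosphorylated peptide, bacterial display: peptide library displayed on the E. coli surface as eCPX fusions, selected cells deep-sequenced, score is each peptide's frequency after selection divided by its frequency in the input.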
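Throughout, for phosphorylation enrichment, bacterial display: 11-residue human phosphosite peptides and single-mutation variants displayed on the E. coli surface, counted by deep sequencing, each peptide's frequency after selection divided by its frequency in the unselected input library; frequency after pTyr selection over input frequency; kinase dosed for 20-30% of maximal phosphorylation in three min.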

Chain of Jak2 (O60674 whole entry, looked up): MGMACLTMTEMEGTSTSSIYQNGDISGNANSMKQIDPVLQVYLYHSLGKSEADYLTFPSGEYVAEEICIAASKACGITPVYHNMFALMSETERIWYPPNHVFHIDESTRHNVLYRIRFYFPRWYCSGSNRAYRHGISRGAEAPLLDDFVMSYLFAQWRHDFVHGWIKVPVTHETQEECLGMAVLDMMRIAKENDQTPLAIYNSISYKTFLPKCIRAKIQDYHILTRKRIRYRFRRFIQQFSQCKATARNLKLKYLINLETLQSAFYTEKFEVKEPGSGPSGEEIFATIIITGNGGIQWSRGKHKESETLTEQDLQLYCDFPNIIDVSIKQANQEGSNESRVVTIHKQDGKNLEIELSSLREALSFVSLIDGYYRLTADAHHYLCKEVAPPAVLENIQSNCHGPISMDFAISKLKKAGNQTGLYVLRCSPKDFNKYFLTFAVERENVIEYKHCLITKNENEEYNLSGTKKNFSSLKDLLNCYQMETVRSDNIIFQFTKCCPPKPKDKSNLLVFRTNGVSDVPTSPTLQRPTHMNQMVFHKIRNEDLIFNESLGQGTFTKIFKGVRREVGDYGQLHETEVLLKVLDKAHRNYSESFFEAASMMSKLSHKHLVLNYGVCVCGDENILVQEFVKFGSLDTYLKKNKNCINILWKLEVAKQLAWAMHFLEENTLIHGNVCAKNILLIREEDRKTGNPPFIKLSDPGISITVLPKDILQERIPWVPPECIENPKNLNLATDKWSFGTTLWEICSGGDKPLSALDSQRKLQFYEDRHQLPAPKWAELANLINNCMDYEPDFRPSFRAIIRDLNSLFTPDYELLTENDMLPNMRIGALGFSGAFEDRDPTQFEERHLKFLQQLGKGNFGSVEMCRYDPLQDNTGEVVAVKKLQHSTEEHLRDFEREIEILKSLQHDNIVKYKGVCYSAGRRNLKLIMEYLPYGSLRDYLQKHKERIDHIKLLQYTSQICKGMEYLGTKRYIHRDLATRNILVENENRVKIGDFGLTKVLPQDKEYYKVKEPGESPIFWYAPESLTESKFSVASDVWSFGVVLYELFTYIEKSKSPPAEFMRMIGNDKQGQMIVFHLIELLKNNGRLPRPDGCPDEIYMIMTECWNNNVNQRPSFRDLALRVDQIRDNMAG
Chain of EPHB1 (P54762 whole entry, looked up): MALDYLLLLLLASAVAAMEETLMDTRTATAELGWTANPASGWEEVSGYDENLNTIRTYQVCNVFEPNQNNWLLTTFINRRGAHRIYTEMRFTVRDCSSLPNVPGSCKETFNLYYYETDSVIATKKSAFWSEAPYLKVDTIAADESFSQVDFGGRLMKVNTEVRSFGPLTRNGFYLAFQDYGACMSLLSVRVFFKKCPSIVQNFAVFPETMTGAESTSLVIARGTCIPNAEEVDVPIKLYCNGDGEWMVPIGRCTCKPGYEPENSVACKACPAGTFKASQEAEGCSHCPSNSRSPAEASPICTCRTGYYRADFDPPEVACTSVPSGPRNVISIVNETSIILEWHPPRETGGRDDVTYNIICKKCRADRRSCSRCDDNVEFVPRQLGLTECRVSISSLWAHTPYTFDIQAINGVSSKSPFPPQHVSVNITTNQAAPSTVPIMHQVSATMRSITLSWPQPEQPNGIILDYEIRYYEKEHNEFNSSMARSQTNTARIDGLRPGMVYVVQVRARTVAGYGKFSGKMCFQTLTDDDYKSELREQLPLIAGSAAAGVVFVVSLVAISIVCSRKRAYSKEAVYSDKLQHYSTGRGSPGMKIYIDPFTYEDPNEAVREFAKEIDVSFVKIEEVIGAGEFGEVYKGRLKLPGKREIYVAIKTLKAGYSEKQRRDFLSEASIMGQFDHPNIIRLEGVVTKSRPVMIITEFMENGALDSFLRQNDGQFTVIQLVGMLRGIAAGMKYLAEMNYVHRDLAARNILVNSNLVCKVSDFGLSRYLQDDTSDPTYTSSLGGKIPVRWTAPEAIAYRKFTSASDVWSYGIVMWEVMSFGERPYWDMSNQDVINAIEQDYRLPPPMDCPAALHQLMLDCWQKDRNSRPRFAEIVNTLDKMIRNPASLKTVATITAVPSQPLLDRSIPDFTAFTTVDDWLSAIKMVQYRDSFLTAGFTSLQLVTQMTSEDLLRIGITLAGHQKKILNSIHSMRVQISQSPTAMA
Chain of Fes (P07332 whole entry, looked up): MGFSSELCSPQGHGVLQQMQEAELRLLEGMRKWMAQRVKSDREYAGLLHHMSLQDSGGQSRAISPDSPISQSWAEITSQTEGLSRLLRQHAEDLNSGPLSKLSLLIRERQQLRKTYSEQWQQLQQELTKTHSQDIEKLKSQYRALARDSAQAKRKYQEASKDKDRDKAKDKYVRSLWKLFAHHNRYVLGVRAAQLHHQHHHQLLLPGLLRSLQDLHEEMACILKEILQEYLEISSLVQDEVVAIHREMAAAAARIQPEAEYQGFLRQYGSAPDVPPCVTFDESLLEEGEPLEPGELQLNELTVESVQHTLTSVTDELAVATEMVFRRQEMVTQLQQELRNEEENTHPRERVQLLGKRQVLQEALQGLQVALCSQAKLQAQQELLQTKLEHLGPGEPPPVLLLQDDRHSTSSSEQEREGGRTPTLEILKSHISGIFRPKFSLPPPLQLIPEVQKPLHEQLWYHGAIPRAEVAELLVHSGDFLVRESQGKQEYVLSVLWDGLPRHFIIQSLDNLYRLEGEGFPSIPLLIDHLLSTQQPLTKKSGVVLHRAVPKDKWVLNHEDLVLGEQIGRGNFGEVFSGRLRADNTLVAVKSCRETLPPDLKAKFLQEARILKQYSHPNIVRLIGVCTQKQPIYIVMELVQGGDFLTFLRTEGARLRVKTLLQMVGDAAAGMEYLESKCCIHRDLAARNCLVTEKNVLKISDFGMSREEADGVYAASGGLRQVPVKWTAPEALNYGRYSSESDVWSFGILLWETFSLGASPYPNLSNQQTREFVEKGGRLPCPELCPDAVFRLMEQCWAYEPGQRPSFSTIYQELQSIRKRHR

Sequence | SH2 binding enrichment (c-Src SH2) | SH2 binding enrichment (SHP2-C SH2) | SH2 binding enrichment (Grb2 SH2) | phosphorylation enrichment (EPHB1) | phosphorylation enrichment (Jak2) | phosphorylation enrichment (Fes) | phosphorylation enrichment (FGFR3) | phosphorylation enrichment (EPHB2) | phosphorylation enrichment (Fer (mouse)) | phosphorylation enrichment (FGFR1) | phosphorylation enrichment (c-Abl (mouse)) | phosphorylation enrichment (Fyn) | phosphorylation enrichment (c-Src) | phosphorylation enrichment (AncSZ) | phosphorylation enrichment (MERTK) | phosphorylation enrichment (Hck)
RDMMDYMLQGV [CYP21A2_Y259] | 0.531 | 0.997 | 0.812 | 1.34 | 1.63 | 1.19 | 0.869 | 0.827 | 0.612 | 0.73 | 0.962 | 0.673 | 1.09 | 1.2 | 0.488 | 0.581
REAMEYLESKQ [BTK_Y511_C506R] | 0.491 | 0.678 | 0.706 | 0.657 | 1.09 | 1.15 | 0.794 | 0.573 | 0.704 | 0.754 | 1.15 | 0.703 | 0.701 | 1.62 | 0.501 | 0.505
REGAKYVSHGA [ASS1_Y113] | 0.415 | 0.322 | 0.602 | 0.553 | 0.47 | 0.628 | 0.501 | 0.4 | 0.566 | 0.385 | 0.339 | 0.378 | 0.275 | 0.5 | 0.403 | 0.399
RELGEYGLQAF [ALDH2_Y497_YF] | 0.758 | 1.04 | 1.15 | 0.707 | 0.724 | 1.66 | 0.793 | 1.07 | 0.816 | 0.653 | 0.951 | 0.775 | 0.704 | 1.07 | 1.87 | 0.772
RFLRGYRQHAY [HLA-A_Y137_D140H] | 0.424 | 0.57 | 0.539 | 0.787 | 0.979 | 1.04 | 0.849 | 0.879 | 1.02 | 0.623 | 1.31 | 0.654 | 1.11 | 1.1 | 1.33 | 1.06
RGFRQDAFDGK [HLA-A_Y140_YF] | 0.412 | 1.05 | 0.711 | 0.454 | 0.461 | 0.633 | 0.73 | 0.475 | 0.487 | 0.488 | 0.935 | 0.414 | 0.633 | 0.575 | 0.559 | 0.396

Further lines, with some results ahead:

SH2 binding enrichment (c-Src SH2) | SH2 binding enrichment (SHP2-C SH2) | SH2 binding enrichment (Grb2 SH2) | Sequence | phosphorylation enrichment (EPHB1) | phosphorylation enrichment (Jak2) | phosphorylation enrichment (Fes) | phosphorylation enrichment (FGFR3) | phosphorylation enrichment (EPHB2) | phosphorylation enrichment (Fer (mouse)) | phosphorylation enrichment (FGFR1) | phosphorylation enrichment (c-Abl (mouse)) | phosphorylation enrichment (Fyn) | phosphorylation enrichment (c-Src) | phosphorylation enrichment (AncSZ) | phosphorylation enrichment (MERTK) | phosphorylation enrichment (Hck)
0.676 | 0.723 | 1.04 | REGAKYVSHCA [ASS1_Y113_G117C] | 0.618 | 0.652 | 0.86 | 0.445 | 0.506 | 0.633 | 0.643 | 0.825 | 0.822 | 0.516 | 0.776 | 0.504 | 0.489
0.496 | 0.8 | 1.16 | REVPVYTFSEP [FAM120B_Y368_D370Y_YF] | 1.9 | 1.1 | 1.54 | 1.33 | 1.06 | 11.1 | 1.14 | 1.72 | 11.5 | 9.04 | 1.83 | 3.58 | 4.36
0.75 | 0.798 | 1.96 | RGGDSYGGPPR [RBMX_Y190_R187G] | 0.399 | 0.43 | 0.848 | 0.58 | 0.5 | 0.441 | 0.454 | 0.735 | 0.524 | 0.592 | 0.498 | 0.586 | 0.656
